The text below walks through data of publication PMC12720421, “Disordered N‐termini enhance the thermostability of SGNH‐hydrolase family polyesterases” (Protein Science : A Publication of the Protein Society, 2025).

One may read the stoichiometry N as the number of molecules, sites or subunits per partner or assembly. By Km is commonly meant the substrate concentration at which the rate is half of its maximum. For orientation: kcat means the maximal rate divided by the concentration of active sites. The kcat/Km is the second-order rate constant that governs catalysis at low substrate concentration.

The target of one data set is T1, Pmt_EST (Zestomonas thermotolerans, UniProt Z9LQW2KWT1).
T1 sequence (Z9LQW2KWT1 41-245): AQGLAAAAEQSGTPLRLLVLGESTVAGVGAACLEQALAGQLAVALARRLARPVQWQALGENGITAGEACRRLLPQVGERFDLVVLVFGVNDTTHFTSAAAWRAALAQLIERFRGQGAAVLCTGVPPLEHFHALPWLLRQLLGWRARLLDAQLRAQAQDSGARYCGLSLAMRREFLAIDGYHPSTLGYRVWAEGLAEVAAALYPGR
Nature of the data set: pNP release at […] nm, specific activity. Format: biochemical. The settings on record: 50 mM Tris pH 8.5, 5% methanol.

Another data set deals with T2, Ft_EST (Fontimonas thermophila, UniProt A0A1I2JG86).
T2 construct: gene SAMN04488120_10748
T2 sequence (A0A1I2JG86 25-217): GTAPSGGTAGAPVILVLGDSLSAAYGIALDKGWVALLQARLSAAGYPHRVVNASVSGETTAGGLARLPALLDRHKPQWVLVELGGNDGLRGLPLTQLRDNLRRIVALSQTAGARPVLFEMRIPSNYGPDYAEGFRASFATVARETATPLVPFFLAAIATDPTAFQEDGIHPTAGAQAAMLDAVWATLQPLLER
Nature of the data set: pNP release at […] nm, specific activity. The class given is biochemical. The following applies: 50 mM Tris pH 8.5, 5% methanol.

The target of data set [1] is Rp_EST from Rhodothermus profundi (Rhodothermus profundi). In words: SEC; analytical SEC on a Superdex 200 Increase 10/300 GL column, with a BioRad Gel Filtration Standard; self-association of each purified esterase. Background: Size exclusion chromatography separates by hydrodynamic size, large species first.
Data set [2] relates to CCCC(=O)Oc1ccc([N+](=O)[O-])cc1. Nature of the data set: purified protein. Format: biochemical, Maribacter thermophilus. The settings on record: 50 mM Tris pH 8.0, room temperature, 5% methanol, 0.05-0.1 μM enzyme.
Data set [3] deals with PpEST from Pseudomonas oleovorans (Pseudomonas oleovorans). In words: SEC; analytical SEC on a Superdex 200 Increase 10/300 GL column, with a BioRad Gel Filtration Standard; self-association of each purified esterase.
Substrate in data set [4]: CCCC(=O)Oc1ccc([N+](=O)[O-])cc1
In words: purified protein. The class given is biochemical, Rhodothermus profundi. The following applies: 50 mM Tris pH 8.0, room temperature, 5% methanol, 0.05-0.1 μM enzyme.

Substrate in data set [5]: CCCC(=O)Oc1ccc([N+](=O)[O-])cc1
In words: purified protein. Format: biochemical, Chloracidobacterium thermophilum. The following applies: 50 mM Tris pH 8.0, room temperature, 5% methanol, 0.05-0.1 μM enzyme.

Substrate in data set [6]: CCCC(=O)Oc1ccc([N+](=O)[O-])cc1
In words: purified protein. The class given is biochemical, Ectopseudomonas oleovorans. The following applies: 50 mM Tris pH 8.0, room temperature, 5% methanol, 0.05-0.1 μM enzyme.

Substrate in data set [7]: CCCC(=O)Oc1ccc([N+](=O)[O-])cc1
In words: purified protein. The class given is biochemical, Altericroceibacterium indicum. The settings on record: 50 mM Tris pH 8.0, room temperature, 5% methanol, 0.05-0.1 μM enzyme.

Several values for one entry are separate records, joined by “and”; a condition that tells them apart may be missing. Equal entries are not always repeated.

For `CCCC(=O)Oc1ccc([N+](=O)[O-])cc1` [pNP-butyrate], the “pNP release at 410 nm, specific activity” value on Pmt_EST is “showed a clear preference for mid‐chain length esters, particularly pNP‐butyrate (C4)”; on Ft_EST it was “showed a clear preference for mid‐chain length esters, particularly pNP‐butyrate (C4)”.

Consider “Rp_EST from Rhodothermus profundi (enzyme)”, for which the stoichiometry N in [1] was 2 and 4.

For Mt_EST (Maribacter thermophilus), in data set [2], the Km was 453 ± 81 µM, the kcat came to 54.4 ± 4.4 s⁻¹ and the kcat/Km is 120000 M⁻¹ s⁻¹.

In turn, “PpEST from Pseudomonas oleovorans (enzyme)” displayed a stoichiometry N in data set [3] of 2.

B1: Rp_EST (Rhodothermus profundi) (protein)
chain: QDTSKSSASSSEGSPDTTAKTPTHAARAAQPITVLVLGNSLAAGYGLSPDEAFPAILQRKVDSLGWPVRILNAGLSGETSAGGLRRIDWLLRERIDVLILELGANDGLRGIDPEVTRQNLQGIIDKVRARYPEADIILAGMQLPPNLGPAYTAAFRALYPELARANNAYLIPFLLEGVGGVPELNQADGIHPTAEGQRIVAENVWRVLRPVLERRLGLA
B1: in “purified protein [4]”, the Km was determined as 246 ± 72 µM, the kcat is 12 ± 1.3 s⁻¹ and the kcat/Km turned out to be 49000 M⁻¹ s⁻¹.

B2: shCt_EST (Chloracidobacterium thermophilum B) (protein)
chain: TARPRIVVLGDSLTAGFGLPREASYPTVLQKKLDAAGLNYQVINAGISGDTSAGGVERLDWSLDGDVRIVILALGANDGLRGLPLTQMEANLRTIIERARARGAQVILAGLKAPAEAGPDYGAQFEAVYRKLAQQYRLPLIPSLLEGVAGREELNQEDGIHPNARGAAIVADNVWKVLEPVARQQLAQSQSNPDAPPAAKPAGAR
notes: N-terminal extension truncated to align with AlinE4 and PpEST (borders not in main text), C-terminal 6xHis tag, E. coli, monomer
For the molecule B2, in “purified protein [5]”, the Km is 646 ± 139 µM, the kcat was 33.3 ± 3.7 s⁻¹ and the kcat/Km came to 52000 M⁻¹ s⁻¹.

B3: PpEST (Ectopseudomonas oleovorans CECT 5344) (protein)
chain: GTLLVVGDSISAAFGLDSRQGWVALLEKRLSEEGFEHSVVNASISGDTSAGGAARLSALLAEHKPELVIIELGGNDGLRGQPPAQLQQNLASMVEQSQQAGAKVLLLGMKLPPNYGVRYTTAFAQVFTDLAEQKQVSLVPFFLEGVGGVPGMMQADGIHPAEAAQEILLDNVWPTLKPML
Consider B3, for which, in the data set “purified protein [6]”, the Km was found to be 242 ± 49 µM, the kcat was determined as 14 ± 1 s⁻¹ and the kcat/Km turned out to be 58000 M⁻¹ s⁻¹.

B4: shRp_EST (Rhodothermus profundi) (protein)
chain: ITVLVLGNSLAAGYGLSPDEAFPAILQRKVDSLGWPVRILNAGLSGETSAGGLRRIDWLLRERIDVLILELGANDGLRGIDPEVTRQNLQGIIDKVRARYPEADIILAGMQLPPNLGPAYTAAFRALYPELARANNAYLIPFLLEGVGGVPELNQADGIHPTAEGQRIVAENVWRVLRPVLERRLGLA
notes: as for B2
B4: in the data set “purified protein [4]”, the Km came out at 257 ± 43 µM, the kcat came out at 25 ± 1.6 s⁻¹ and the kcat/Km worked out at 97000 M⁻¹ s⁻¹.

B5: Ct_EST (Chloracidobacterium thermophilum B) (protein)
chain: GGCSRTGTEAPENLPVLAPAPTDAAPTARPRIVVLGDSLTAGFGLPREASYPTVLQKKLDAAGLNYQVINAGISGDTSAGGVERLDWSLDGDVRIVILALGANDGLRGLPLTQMEANLRTIIERARARGAQVILAGLKAPAEAGPDYGAQFEAVYRKLAQQYRLPLIPSLLEGVAGREELNQEDGIHPNARGAAIVADNVWKVLEPVARQQLAQSQSNPDAPPAAKPAGAR
Consider B5, for which, in the data set “purified protein [5]”, the Km was determined as 791 ± 178 µM, the kcat amounted to 38.5 ± 4.8 s⁻¹ and the kcat/Km worked out at 49000 M⁻¹ s⁻¹.

B6: AlinE4 (Altericroceibacterium indicum) (protein)
chain: SMGESRVILAFGDSLFAGYGLDKGESYPAKLETALRSHGINARIINAGVSGDTTAAGLQRIKFVLDSQPDKPELAIVELGGNDLLRGLSPAEARQNLSGILEELQRRKIPILLMGMRAPPNLGAKYQREFDGIYPYLAEKYDAKLVPFFLEAVADRPDLIQKDHVHPTARGVEELVSATSNAVAKALPAKK
As to B6, in the data set “purified protein [7]”, the Km stood at 194 ± 55 µM, the kcat was 15 ± 1.4 s⁻¹ and the kcat/Km stood at 77000 M⁻¹ s⁻¹.
